IntAct's records for PubMed 21382479

B1: Caveolin-1 (Homo sapiens), Q03135 (parent)
chain: MSGGKYVDSEGHLYTVPIREQGNIYKPNNKAMADELSEKQVYDAHTKEIDLVNRDPKHLNDDVVKIDFEDVIAEPEGTHSFDGIWKASFTTFTVTKYWFYRLLSALFGIPMALIWGIYFAILSFLHIWAVVPCIKSFLIEIQCISRVYSIYVHTVCDPLFEAVGKIFSNVRINLQKEI
partner: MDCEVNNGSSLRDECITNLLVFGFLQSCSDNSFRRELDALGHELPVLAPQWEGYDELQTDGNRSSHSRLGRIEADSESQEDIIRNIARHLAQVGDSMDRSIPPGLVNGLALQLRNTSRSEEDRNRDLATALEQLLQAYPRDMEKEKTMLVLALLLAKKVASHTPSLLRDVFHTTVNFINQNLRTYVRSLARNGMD

Variants of: B1
Conditions: with bid_human BID

Variant | effect of a mutation on the interaction
MSGGKYVDSEGHLFTVPIREQGNIYKPNNKAMADELSEKQVYDAHTKEIDLVNRDPKHLNDDVVKIDFEDVIAEPEGTHSFDGIWKASFTTFTVTKYWFYRLLSALFGIPMALIWGIYFAILSFLHIWAVVPCIKSFLIEIQCISRVYSIYVHTVCDPLFEAVGKIFSNVRINLQKEI [Y14F] | disrupting interaction
